Measurements taken from patent US20100047243A1 (published 2010).

Biological target: T1, recombinant cynomolgus macaque IGF-1R (IGF-1R-Fc fusion protein of Example 4) (cynomolgus macaque (Macaca fascicularis))
T1 construct: also called Cynomolgus IGF-1R; cyno IGF-1R
Assay: Biacore T100, antibody captured on Protein A, recombinant cynomolgus IGF-1R analyte (256-16 nM), HBS-EP, 37 C
Procedure: Protein A was immobilised on a CM5 surface by primary amine coupling in accordance with the manufacturers standard protocols. Antibodies against IGF-1R were captured on this surface and after a period of stabilisation recombinant human or cynomolgus IGF-1R was injected over this captured surface. […] Data was analysed using the 1:1 model inherent to the Biacore machine, the work was carried out on the T100 using HBS-EP running buffer at 37° C.

T1 sequence (chain, as listed by the source limits assumed): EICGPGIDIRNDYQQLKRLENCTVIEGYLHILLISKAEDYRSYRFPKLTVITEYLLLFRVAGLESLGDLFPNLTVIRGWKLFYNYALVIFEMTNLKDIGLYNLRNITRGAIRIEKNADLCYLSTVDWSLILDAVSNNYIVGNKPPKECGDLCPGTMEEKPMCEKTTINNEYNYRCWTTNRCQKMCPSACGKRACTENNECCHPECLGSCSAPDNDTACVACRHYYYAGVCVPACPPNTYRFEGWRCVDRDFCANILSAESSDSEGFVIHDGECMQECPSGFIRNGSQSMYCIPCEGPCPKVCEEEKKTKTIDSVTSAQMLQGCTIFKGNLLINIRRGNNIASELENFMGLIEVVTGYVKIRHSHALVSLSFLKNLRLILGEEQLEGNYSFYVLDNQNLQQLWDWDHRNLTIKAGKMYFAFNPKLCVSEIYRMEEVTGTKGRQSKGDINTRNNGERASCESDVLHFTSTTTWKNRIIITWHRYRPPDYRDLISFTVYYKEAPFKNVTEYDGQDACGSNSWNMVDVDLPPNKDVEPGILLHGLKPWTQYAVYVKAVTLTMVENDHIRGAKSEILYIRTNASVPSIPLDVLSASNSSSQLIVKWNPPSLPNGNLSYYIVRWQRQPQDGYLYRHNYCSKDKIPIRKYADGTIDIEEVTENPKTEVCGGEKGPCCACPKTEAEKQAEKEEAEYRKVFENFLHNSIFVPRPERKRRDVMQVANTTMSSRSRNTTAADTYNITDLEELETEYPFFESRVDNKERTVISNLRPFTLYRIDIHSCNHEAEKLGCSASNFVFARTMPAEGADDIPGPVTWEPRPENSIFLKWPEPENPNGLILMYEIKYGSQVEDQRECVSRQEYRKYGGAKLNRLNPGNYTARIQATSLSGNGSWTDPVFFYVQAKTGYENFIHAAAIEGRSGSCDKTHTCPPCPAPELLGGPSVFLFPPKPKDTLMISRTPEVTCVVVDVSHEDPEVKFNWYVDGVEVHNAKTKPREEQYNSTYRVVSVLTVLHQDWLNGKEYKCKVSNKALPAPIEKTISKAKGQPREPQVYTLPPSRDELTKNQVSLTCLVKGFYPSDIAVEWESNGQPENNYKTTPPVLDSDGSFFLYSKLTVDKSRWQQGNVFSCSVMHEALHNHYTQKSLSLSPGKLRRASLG

- Kd: 190 pM
B1: 6E11 chimeric antibody (antibody, human IgG1, kappa, V domains shown)
VH: EVQLQQSGPELVKPGASVRISCKASGYAFTDYYMNWVKQSHGKSLEWVANINPNNGGTNYNQKFKDKATLTVDKSSNTAYMELRSLTSEDTAVYYCARWILYYGRSKWYFDVWGTGTLVTVSS
VL: DVLMTQTPLSLPVSLGDHASISCRSSQSIVQSNGDTYLEWYLQKPGQSPKLLIYRISNRFSGVPDRFSGSGSGTDFTLKISRVEAEDLGVYYCFQGSHVPYTFGGGTKLEIKR
notes: Murine 6E11 variable domains on human IgG1/kappa wild type constant regions; also called 6E11 chimera; 6E11 chimaera
